Measured values reported in patent publication US20050064533A1 (ADELAIDE RESEARCH AND INNOVATION, published 2005).

Tests used:
[1] = biological target: recombinant MBP (Maltose Binding Protein) alone, negative control (UniProt P0AEX9 27-392 = MBP); assay: pulldown on amylose-agarose resin, autoradiography
Description: (§1) FIG. 8. […] The CAD containing C-terminal 100 amino acids of HIF-2a was in vitro translated in the presence of ³⁵S-methionine. […] The resin mixtures were washed before the pulled down proteins were analysed by SDS-PAGE and autoradiography. Lanes 1-3 show 10% of the input translation mixtures.
(§2) Samples were centrifuged 1500 rpm, 30 secs (room temp) to pellet resin, and the supernatant discarded. Resin was then washed three times with 1 ml of the binding buffer. […] After centrifuging 30 secs/1500 rpm, 30 ul of the supernatant was separated by electrophoresis through a 12.5 % polyacrylamide gel. The gel was dried and exposed to autoradiography.

[2] = biological target: T1, MBP (maltose binding protein) fused to wild type HIF Asparagine Hydroxylase (HNH) (UniProt Q9NWT6 1-349); assay: pulldown on amylose-agarose resin, autoradiography
T1 construct: also called MBP-HNH; MBP/FIH-1
Description: as §1, §2

T1 sequence (Q9NWT6 whole entry, the tested form may be a part): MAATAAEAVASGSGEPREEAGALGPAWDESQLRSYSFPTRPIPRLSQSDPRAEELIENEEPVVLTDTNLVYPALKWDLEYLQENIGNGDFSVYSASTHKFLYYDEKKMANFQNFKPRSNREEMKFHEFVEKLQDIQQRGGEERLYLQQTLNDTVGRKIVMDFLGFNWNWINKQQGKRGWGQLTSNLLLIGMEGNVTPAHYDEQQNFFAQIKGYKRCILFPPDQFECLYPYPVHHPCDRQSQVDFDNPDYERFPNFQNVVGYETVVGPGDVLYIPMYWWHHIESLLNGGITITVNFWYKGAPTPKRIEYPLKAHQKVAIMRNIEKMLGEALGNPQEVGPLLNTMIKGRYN

B1: C-terminal 100 amino acids of mouse HIF-2a (775-874), wild type, with N-terminal thioredoxin/6-histidine tag (other)
chain: RGLGQPLRHLPPPQPPSTRSSGENAKTGFPPQCYASQFQDYGPPGAQKVSGVASRLLGPSFEPYLLPELTRYDCEVNVPVPGSSTLLQGRDLLRALDQAT
modifications: in vitro translated in the presence of 35S-methionine (radiolabelled Met)
notes: range 775-874; also called HIF-2a CAD; wild type CAD; not shown: N-terminal thioredoxin/6-histidine tag supplied by the pET32 vector
B1: no binding [1].

B2: C-terminal 100 amino acids of mouse HIF-2a (775-874), mutant RLL to AAA, with N-terminal thioredoxin/6-histidine tag (other, UniProt P97481 775-874, looked up)
chain: RGLGQPLRHLPPPQPPSTRSSGENAKTGFPPQCYASQFQDYGPPGAQKVSGVASAAAGPSFEPYLLPELTRYDCEVNVPVPGSSTLLQGRDLLRALDQAT
modifications: in vitro translated in the presence of 35S-methionine (radiolabelled Met)
notes: range 775-874; also called RLL to AAA triple mutant CAD; not shown: N-terminal thioredoxin/6-histidine tag supplied by the pET32 vector
B2: no binding [2]; no binding [1].

B3: C-terminal 100 amino acids of mouse HIF-2a (775-874), mutant N851A, with N-terminal thioredoxin/6-histidine tag (other)
chain: RGLGQPLRHLPPPQPPSTRSSGENAKTGFPPQCYASQFQDYGPPGAQKVSGVASRLLGPSFEPYLLPELTRYDCEVAVPVPGSSTLLQGRDLLRALDQAT
modifications: in vitro translated in the presence of 35S-methionine (radiolabelled Met)
notes: range 775-874; also called N851A point mutant CAD; not shown: N-terminal thioredoxin/6-histidine tag supplied by the pET32 vector
B3: no binding [1].
